Source: the supplement of paper PMC10567573

B1: EIF5 (parent)
chain: KQTIGNSCKACGYRGMLDTHHKLC
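Also: lentivirally expressed fusions sorted by FACS into six bins by GFP to DsRed ratio, PSI derived from sequencing read proportions per bin multiplied by bin number.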

Variants of: B1
Test: protein stability index of a GFP-peptide fusion (GPS, HEK-293T) (PSI 1-6); higher = more stable
Details: c terminus: a fixed tail appended
KQTIGNSCKACGYRGMLDTHHKLV [C24V] gave a protein stability index of 2.35. With KQTIGNSCKACGYRGMLDTHHKLL [C24L] the protein stability index was 1.92. For KQTIGNSCKACGYRGMLDTHHKLA [C24A], the protein stability index was 1.99. KQTIGNSCKACGYRGMLDTHHKLF [C24F] gave a protein stability index of 2.24. In the case of KQTIGNSCKACGYRGMLDTHHKLQ [C24Q], the protein stability index is reported as 2.22. In the case of KQTIGNSCKACGYRGMLDTHHKLD [C24D], the protein stability index is reported as 2.25. In the case of KQTIGNSCKACGYRGMLDTHHKLG [C24G], the protein stability index is reported as 1.63. KQTIGNSCKACGYRGMLDTHHKLE [C24E] showed a protein stability index of 2.11. KQTIGNSCKACGYRGMLDTHHKLK [C24K] gave a protein stability index of 2.15. In the case of KQTIGNSCKACGYRGMLDTHHKLT [C24T], the protein stability index is reported as 1.57. With KQTIGNSCKACGYRGMLDTHHKLN [C24N] the protein stability index was 1.91. In the case of KQTIGNSCKACGYRGMLDTHHKLW [C24W], the protein stability index is reported as 2.21. Variant KQTIGNSCKACGYRGMLDTHHKLP [C24P] has a protein stability index of 1.81. Variant KQTIGNSCKACGYRGMLDTHHKLY [C24Y] has a protein stability index of 1.7. Variant KQTIGNSCKACGYRGMLDTHHKLR [C24R] has a protein stability index of 1.38. KQTIGNSCKACGYRGMLDTHHKLS [C24S] gave a protein stability index of 1.89. In the case of KQTIGNSCKACGYRGMLDTHHKLI [C24I], the protein stability index is reported as 2.07. For KQTIGNSCKACGYRGMLDTHHKLH [C24H], the protein stability index was 1.9. Variant KQTIGNSCKACGYRGMLDTHHKLM [C24M] has a protein stability index of 2.81. For KQTIGNSCKACGYRGMLDSHHKLC [T19S], the protein stability index was 3.1. Variant KQTIGNSCKACGYRGMLDRHHKLC [T19R] has a protein stability index of 2.79. Work on KQTIGNSCKACGYRGMLDMHHKLC [T19M] yielded a protein stability index of 3.03. For KQTIGNSCKACGYRGMLDIHHKLC [T19I], the protein stability index was 2.68. For KQTIGNSCKACGYRGMLDFHHKLC [T19F], the protein stability index was 2.17. Work on KQTIGNSCKACGYRGMLDWHHKLC [T19W] yielded a protein stability index of 1.87. In the case of KQTIGNSCKACGYRGMLDEHHKLC [T19E], the protein stability index is reported as 3.62. For KQTIGNSCKACGYRGMLDYHHKLC [T19Y], the protein stability index was 2.71. In the case of KQTIGNSCKACGYRGMLDPHHKLC [T19P], the protein stability index is reported as 2.81. With KQTIGNSCKACGYRGMLDDHHKLC [T19D] the protein stability index was 4.48. With KQTIGNSCKACGYRGMLDQHHKLC [T19Q] the protein stability index was 3.03. With KQTIGNSCKACGYRGMLDCHHKLC [T19C] the protein stability index was 3.45. Variant KQTIGNSCKACGYRGMLDKHHKLC [T19K] has a protein stability index of 3.44. With KQTIGNSCKACGYRGMLDLHHKLC [T19L] the protein stability index was 2.29. Variant KQTIGNSCKACGYRGMLDNHHKLC [T19N] has a protein stability index of 3.81. KQTIGNSCKACGYRGMLDGHHKLC [T19G] gave a protein stability index of 4.05. KQTIGNSCKACGYRGMLDHHHKLC [T19H] gave a protein stability index of 3.43. KQTIGNSCKACGYRGMLDAHHKLC [T19A] gave a protein stability index of 3.29. In the case of KQTIGNSCKACGYRGMLDVHHKLC [T19V], the protein stability index is reported as 2.49. Work on KQTIGNSCKACGYRGMLDTHHKSC [L23S] yielded a protein stability index of 4.18. Work on KQTIGNSCKACGYRGMLDTHHKAC [L23A] yielded a protein stability index of 3.89. For KQTIGNSCKACGYRGMLDTHHKKC [L23K], the protein stability index was 3.36. For KQTIGNSCKACGYRGMLDTHHKVC [L23V], the protein stability index was 4.26. KQTIGNSCKACGYRGMLDTHHKGC [L23G] showed a protein stability index of 3.93. Work on KQTIGNSCKACGYRGMLDTHHKYC [L23Y] yielded a protein stability index of 3.89. In the case of KQTIGNSCKACGYRGMLDTHHKQC [L23Q], the protein stability index is reported as 3.82. In the case of KQTIGNSCKACGYRGMLDTHHKHC [L23H], the protein stability index is reported as 4.67. In the case of KQTIGNSCKACGYRGMLDTHHKNC [L23N], the protein stability index is reported as 3.83. KQTIGNSCKACGYRGMLDTHHKCC [L23C] gave a protein stability index of 4.27. KQTIGNSCKACGYRGMLDTHHKRC [L23R] gave a protein stability index of 3.4. Work on KQTIGNSCKACGYRGMLDTHHKTC [L23T] yielded a protein stability index of 4.03. With KQTIGNSCKACGYRGMLDTHHKIC [L23I] the protein stability index was 2.86. Work on KQTIGNSCKACGYRGMLDTHHKEC [L23E] yielded a protein stability index of 4.2. KQTIGNSCKACGYRGMLDTHHKDC [L23D] gave a protein stability index of 4.67. Variant KQTIGNSCKACGYRGMLDTHHKFC [L23F] has a protein stability index of 3.64. With KQTIGNSCKACGYRGMLDTHHKPC [L23P] the protein stability index was 3.28. KQTIGNSCKACGYRGMLDTHHKWC [L23W] gave a protein stability index of 3.91. With KQTIGNSCKACGYRGMLDTHHKMC [L23M] the protein stability index was 3.42. With KQTIGNSCKACGYRGMLDTYHKLC [H20Y] the protein stability index was 2.09. With KQTIGNSCKACGYRGMLDTGHKLC [H20G] the protein stability index was 2.56. KQTIGNSCKACGYRGMLDTKHKLC [H20K] gave a protein stability index of 2.61. In the case of KQTIGNSCKACGYRGMLDTDHKLC [H20D], the protein stability index is reported as 3.64. With KQTIGNSCKACGYRGMLDTMHKLC [H20M] the protein stability index was 1.23. KQTIGNSCKACGYRGMLDTPHKLC [H20P] gave a protein stability index of 2.47. In the case of KQTIGNSCKACGYRGMLDTRHKLC [H20R], the protein stability index is reported as 2.28. With KQTIGNSCKACGYRGMLDTEHKLC [H20E] the protein stability index was 3.24. In the case of KQTIGNSCKACGYRGMLDTNHKLC [H20N], the protein stability index is reported as 2.92. With KQTIGNSCKACGYRGMLDTTHKLC [H20T] the protein stability index was 1.98. Variant KQTIGNSCKACGYRGMLDTAHKLC [H20A] has a protein stability index of 2.24. KQTIGNSCKACGYRGMLDTLHKLC [H20L] gave a protein stability index of 2.24. Work on KQTIGNSCKACGYRGMLDTCHKLC [H20C] yielded a protein stability index of 2.75. With KQTIGNSCKACGYRGMLDTSHKLC [H20S] the protein stability index was 3.17. KQTIGNSCKACGYRGMLDTWHKLC [H20W] showed a protein stability index of 2.48. With KQTIGNSCKACGYRGMLDTIHKLC [H20I] the protein stability index was 2.12. For KQTIGNSCKACGYRGMLDTQHKLC [H20Q], the protein stability index was 2.5. With KQTIGNSCKACGYRGMLDTFHKLC [H20F] the protein stability index was 2.07. Variant KQTIGNSCKACGYRGMLDTVHKLC [H20V] has a protein stability index of 2.15. Work on KQTIGNSCKACGYRGMLDTHHILC [K22I] yielded a protein stability index of 2.37. For KQTIGNSCKACGYRGMLDTHHDLC [K22D], the protein stability index was 3.72. Work on KQTIGNSCKACGYRGMLDTHHRLC [K22R] yielded a protein stability index of 2.34. Variant KQTIGNSCKACGYRGMLDTHHLLC [K22L] has a protein stability index of 2.65. KQTIGNSCKACGYRGMLDTHHQLC [K22Q] showed a protein stability index of 2.76. KQTIGNSCKACGYRGMLDTHHSLC [K22S] gave a protein stability index of 2.79. In the case of KQTIGNSCKACGYRGMLDTHHALC [K22A], the protein stability index is reported as 2.77. In the case of KQTIGNSCKACGYRGMLDTHHELC [K22E], the protein stability index is reported as 2.96. In the case of KQTIGNSCKACGYRGMLDTHHHLC [K22H], the protein stability index is reported as 3.37. With KQTIGNSCKACGYRGMLDTHHGLC [K22G] the protein stability index was 2.52. For KQTIGNSCKACGYRGMLDTHHTLC [K22T], the protein stability index was 2.99. Variant KQTIGNSCKACGYRGMLDTHHNLC [K22N] has a protein stability index of 2.93. KQTIGNSCKACGYRGMLDTHHMLC [K22M] showed a protein stability index of 3.09. Work on KQTIGNSCKACGYRGMLDTHHCLC [K22C] yielded a protein stability index of 4.4. For KQTIGNSCKACGYRGMLDTHHVLC [K22V], the protein stability index was 2.77. In the case of KQTIGNSCKACGYRGMLDTHHPLC [K22P], the protein stability index is reported as 3.79. KQTIGNSCKACGYRGMLDTHHWLC [K22W] showed a protein stability index of 2.17. In the case of KQTIGNSCKACGYRGMLDTHHFLC [K22F], the protein stability index is reported as 2.46.
